Results published in patent US20130336893A1 (Sanofi, published 2013).
*1 amine or outer side, *2 acyl side, *3 side chain or, on linkers, in order; H or OH if unused. Where no end group is shown, it is not given here. Side-chain parts run from the residue outwards. [ ]: non-standard residue; d: D form. The star is where a group is joined. γGlu = O=C(O)[C@H](CCC(=O)[*:2])N[*:1]; Palmitoyl = CCCCCCCCCCCCCCCC(=O)*; Propionyl = CCC(=O)*; βAla = NCCC(=O)O

B1: SEQ ID NO: (100) (peptide)
peptide: H[dS]QGTFTSDLSKQMESRRAQDFIEWLKSGGPSSGAPPPK([βAla-βAla-Palmitoyl])-NH2
modifications: N-terminus assumed
SMILES: CCCCCCCCCCCCCCCC(=O)NCCC(=O)NCCC(=O)NCCCC[C@H](NC(=O)[C@@H]1CCCN1C(=O)[C@@H]1CCCN1C(=O)[C@@H]1CCCN1C(=O)[C@H](C)NC(=O)CNC(=O)[C@H](CO)NC(=O)[C@H](CO)NC(=O)[C@@H]1CCCN1C(=O)CNC(=O)CNC(=O)[C@H](CO)NC(=O)[C@H](CCCCN)NC(=O)[C@H](CC(C)C)NC(=O)[C@H](Cc1c[nH]c2ccccc12)NC(=O)[C@H](CCC(=O)O)NC(=O)[C@@H](NC(=O)[C@H](Cc1ccccc1)NC(=O)[C@H](CC(=O)O)NC(=O)[C@H](CCC(N)=O)NC(=O)[C@H](C)NC(=O)[C@H](CCCNC(=N)N)NC(=O)[C@H](CCCNC(=N)N)NC(=O)[C@H](CO)NC(=O)[C@H](CCC(=O)O)NC(=O)[C@H](CCSC)NC(=O)[C@H](CCC(N)=O)NC(=O)[C@H](CCCCN)NC(=O)[C@H](CO)NC(=O)[C@H](CC(C)C)NC(=O)[C@H](CC(=O)O)NC(=O)[C@H](CO)NC(=O)[C@@H](NC(=O)[C@H](Cc1ccccc1)NC(=O)[C@@H](NC(=O)CNC(=O)[C@H](CCC(N)=O)NC(=O)[C@@H](CO)NC(=O)[C@@H](N)Cc1c[nH]cn1)[C@@H](C)O)[C@@H](C)O)[C@@H](C)CC)C(N)=O
B2: SEQ ID NO: (91) (peptide)
peptide: H[dS]QGTFTSDLSKQMESRRARLFIEWLKSGGPSSGAPPPSK([γGlu-Palmitoyl])-NH2
modifications: N-terminus assumed
SMILES: CCCCCCCCCCCCCCCC(=O)N[C@@H](CCC(=O)NCCCC[C@H](NC(=O)[C@H](CO)NC(=O)[C@@H]1CCCN1C(=O)[C@@H]1CCCN1C(=O)[C@@H]1CCCN1C(=O)[C@H](C)NC(=O)CNC(=O)[C@H](CO)NC(=O)[C@H](CO)NC(=O)[C@@H]1CCCN1C(=O)CNC(=O)CNC(=O)[C@H](CO)NC(=O)[C@H](CCCCN)NC(=O)[C@H](CC(C)C)NC(=O)[C@H](Cc1c[nH]c2ccccc12)NC(=O)[C@H](CCC(=O)O)NC(=O)[C@@H](NC(=O)[C@H](Cc1ccccc1)NC(=O)[C@H](CC(C)C)NC(=O)[C@H](CCCNC(=N)N)NC(=O)[C@H](C)NC(=O)[C@H](CCCNC(=N)N)NC(=O)[C@H](CCCNC(=N)N)NC(=O)[C@H](CO)NC(=O)[C@H](CCC(=O)O)NC(=O)[C@H](CCSC)NC(=O)[C@H](CCC(N)=O)NC(=O)[C@H](CCCCN)NC(=O)[C@H](CO)NC(=O)[C@H](CC(C)C)NC(=O)[C@H](CC(=O)O)NC(=O)[C@H](CO)NC(=O)[C@@H](NC(=O)[C@H](Cc1ccccc1)NC(=O)[C@@H](NC(=O)CNC(=O)[C@H](CCC(N)=O)NC(=O)[C@@H](CO)NC(=O)[C@@H](N)Cc1c[nH]cn1)[C@@H](C)O)[C@@H](C)O)[C@@H](C)CC)C(N)=O)C(=O)O
B3: SEQ ID NO: (106) (peptide)
peptide: H[dS]QGTFTSDLSKQMESRRAQDFIEWLKSGGPSSGAPPPSK([γGlu-Propionyl])-NH2
B4: SEQ ID NO: (103) (peptide)
peptide: H[dS]QGTFTSDLSKQMESRAAQDFIEWLKSGGPSSGAPPPSK([γGlu-Palmitoyl])-NH2
modifications: N-terminus assumed
SMILES: CCCCCCCCCCCCCCCC(=O)N[C@@H](CCC(=O)NCCCC[C@H](NC(=O)[C@H](CO)NC(=O)[C@@H]1CCCN1C(=O)[C@@H]1CCCN1C(=O)[C@@H]1CCCN1C(=O)[C@H](C)NC(=O)CNC(=O)[C@H](CO)NC(=O)[C@H](CO)NC(=O)[C@@H]1CCCN1C(=O)CNC(=O)CNC(=O)[C@H](CO)NC(=O)[C@H](CCCCN)NC(=O)[C@H](CC(C)C)NC(=O)[C@H](Cc1c[nH]c2ccccc12)NC(=O)[C@H](CCC(=O)O)NC(=O)[C@@H](NC(=O)[C@H](Cc1ccccc1)NC(=O)[C@H](CC(=O)O)NC(=O)[C@H](CCC(N)=O)NC(=O)[C@H](C)NC(=O)[C@H](C)NC(=O)[C@H](CCCNC(=N)N)NC(=O)[C@H](CO)NC(=O)[C@H](CCC(=O)O)NC(=O)[C@H](CCSC)NC(=O)[C@H](CCC(N)=O)NC(=O)[C@H](CCCCN)NC(=O)[C@H](CO)NC(=O)[C@H](CC(C)C)NC(=O)[C@H](CC(=O)O)NC(=O)[C@H](CO)NC(=O)[C@@H](NC(=O)[C@H](Cc1ccccc1)NC(=O)[C@@H](NC(=O)CNC(=O)[C@H](CCC(N)=O)NC(=O)[C@@H](CO)NC(=O)[C@@H](N)Cc1c[nH]cn1)[C@@H](C)O)[C@@H](C)O)[C@@H](C)CC)C(N)=O)C(=O)O
B5: SEQ ID NO: (98) (peptide)
peptide: H[dS]QGTFTSDLSKQMESRRAQDFIEWLKSGGPSSGAPPPSK([βAla-βAla-Palmitoyl])-NH2
modifications: N-terminus assumed
SMILES: CCCCCCCCCCCCCCCC(=O)NCCC(=O)NCCC(=O)NCCCC[C@H](NC(=O)[C@H](CO)NC(=O)[C@@H]1CCCN1C(=O)[C@@H]1CCCN1C(=O)[C@@H]1CCCN1C(=O)[C@H](C)NC(=O)CNC(=O)[C@H](CO)NC(=O)[C@H](CO)NC(=O)[C@@H]1CCCN1C(=O)CNC(=O)CNC(=O)[C@H](CO)NC(=O)[C@H](CCCCN)NC(=O)[C@H](CC(C)C)NC(=O)[C@H](Cc1c[nH]c2ccccc12)NC(=O)[C@H](CCC(=O)O)NC(=O)[C@@H](NC(=O)[C@H](Cc1ccccc1)NC(=O)[C@H](CC(=O)O)NC(=O)[C@H](CCC(N)=O)NC(=O)[C@H](C)NC(=O)[C@H](CCCNC(=N)N)NC(=O)[C@H](CCCNC(=N)N)NC(=O)[C@H](CO)NC(=O)[C@H](CCC(=O)O)NC(=O)[C@H](CCSC)NC(=O)[C@H](CCC(N)=O)NC(=O)[C@H](CCCCN)NC(=O)[C@H](CO)NC(=O)[C@H](CC(C)C)NC(=O)[C@H](CC(=O)O)NC(=O)[C@H](CO)NC(=O)[C@@H](NC(=O)[C@H](Cc1ccccc1)NC(=O)[C@@H](NC(=O)CNC(=O)[C@H](CCC(N)=O)NC(=O)[C@@H](CO)NC(=O)[C@@H](N)Cc1c[nH]cn1)[C@@H](C)O)[C@@H](C)O)[C@@H](C)CC)C(N)=O
B6: SEQ ID NO: (92) (peptide)
peptide: H[dS]QGTFTSDLSKQMESRRAQDFIEWLKEGGPSSGRPPPSK([γGlu-Palmitoyl])-NH2
modifications: N-terminus assumed
SMILES: CCCCCCCCCCCCCCCC(=O)N[C@@H](CCC(=O)NCCCC[C@H](NC(=O)[C@H](CO)NC(=O)[C@@H]1CCCN1C(=O)[C@@H]1CCCN1C(=O)[C@@H]1CCCN1C(=O)[C@H](CCCNC(=N)N)NC(=O)CNC(=O)[C@H](CO)NC(=O)[C@H](CO)NC(=O)[C@@H]1CCCN1C(=O)CNC(=O)CNC(=O)[C@H](CCC(=O)O)NC(=O)[C@H](CCCCN)NC(=O)[C@H](CC(C)C)NC(=O)[C@H](Cc1c[nH]c2ccccc12)NC(=O)[C@H](CCC(=O)O)NC(=O)[C@@H](NC(=O)[C@H](Cc1ccccc1)NC(=O)[C@H](CC(=O)O)NC(=O)[C@H](CCC(N)=O)NC(=O)[C@H](C)NC(=O)[C@H](CCCNC(=N)N)NC(=O)[C@H](CCCNC(=N)N)NC(=O)[C@H](CO)NC(=O)[C@H](CCC(=O)O)NC(=O)[C@H](CCSC)NC(=O)[C@H](CCC(N)=O)NC(=O)[C@H](CCCCN)NC(=O)[C@H](CO)NC(=O)[C@H](CC(C)C)NC(=O)[C@H](CC(=O)O)NC(=O)[C@H](CO)NC(=O)[C@@H](NC(=O)[C@H](Cc1ccccc1)NC(=O)[C@@H](NC(=O)CNC(=O)[C@H](CCC(N)=O)NC(=O)[C@@H](CO)NC(=O)[C@@H](N)Cc1c[nH]cn1)[C@@H](C)O)[C@@H](C)O)[C@@H](C)CC)C(N)=O)C(=O)O
B7: SEQ ID NO: (16) (peptide)
peptide: HSQGTFTSDLSKQMEERRAKDFIEWLKNGGPSSGAPPPS-NH2
B8: SEQ ID NO: (97) (peptide)
peptide: H[dS]QGTFTSDLSKQMESRRAQDFIEWLKSGGPSSGAPPPSK([γGlu-γGlu-Palmitoyl])-NH2
B9: SEQ ID NO: (107) (peptide)
peptide: H[dS]QGTFTSDLSKQMESRRAQDFIEWLKSGGPSSGAPPPSK(6‑((4,4-diphenyl-cyclohexyloxy)-hydroxy-phosphoryloxy)‑hexanoyl)-NH2
B10: SEQ ID NO: (104) (peptide)
peptide: H[dS]QGTFTSDLSKQMESRRAQDFIEWLKEGGPSSGKPPPSK([γGlu-Palmitoyl])-NH2
modifications: N-terminus assumed
SMILES: CCCCCCCCCCCCCCCC(=O)N[C@@H](CCC(=O)NCCCC[C@H](NC(=O)[C@H](CO)NC(=O)[C@@H]1CCCN1C(=O)[C@@H]1CCCN1C(=O)[C@@H]1CCCN1C(=O)[C@H](CCCCN)NC(=O)CNC(=O)[C@H](CO)NC(=O)[C@H](CO)NC(=O)[C@@H]1CCCN1C(=O)CNC(=O)CNC(=O)[C@H](CCC(=O)O)NC(=O)[C@H](CCCCN)NC(=O)[C@H](CC(C)C)NC(=O)[C@H](Cc1c[nH]c2ccccc12)NC(=O)[C@H](CCC(=O)O)NC(=O)[C@@H](NC(=O)[C@H](Cc1ccccc1)NC(=O)[C@H](CC(=O)O)NC(=O)[C@H](CCC(N)=O)NC(=O)[C@H](C)NC(=O)[C@H](CCCNC(=N)N)NC(=O)[C@H](CCCNC(=N)N)NC(=O)[C@H](CO)NC(=O)[C@H](CCC(=O)O)NC(=O)[C@H](CCSC)NC(=O)[C@H](CCC(N)=O)NC(=O)[C@H](CCCCN)NC(=O)[C@H](CO)NC(=O)[C@H](CC(C)C)NC(=O)[C@H](CC(=O)O)NC(=O)[C@H](CO)NC(=O)[C@@H](NC(=O)[C@H](Cc1ccccc1)NC(=O)[C@@H](NC(=O)CNC(=O)[C@H](CCC(N)=O)NC(=O)[C@@H](CO)NC(=O)[C@@H](N)Cc1c[nH]cn1)[C@@H](C)O)[C@@H](C)O)[C@@H](C)CC)C(N)=O)C(=O)O
B11: SEQ ID NO: (93) (peptide)
peptide: H[dS]QGTFTSDLSKQMESRRAQDFIEWLKSGGPSSGAPPPSK([γGlu-aleuritolyl])-NH2
B12: SEQ ID NO: (105) (peptide)
peptide: H[dS]QGTFTSDLSKQMESRRAQDFIEWLKSGGPSSGAPPPSK(Ac)-NH2

biological target: human GLP-1 receptor (human, UniProt P43220 24-463); assay: cell-based or functional assay

| Binder | EC50 hGLP-1R (cAMP formation) [nM] |
| --- | --- |
| B1 | 0.0096 |
| B2 | 0.0067 |
| B3 | 0.315 |
| B4 | 0.0037 |
| B5 | 0.0051 |
| B6 | 0.006 |
| B7 | 0.0076 |
| B8 | 0.0047 |
| B9 | 0.009 |
| B10 | 0.0073 |
| B11 | 0.188 |
| B12 | 0.142 |

biological target: human glucagon receptor (human, UniProt P47871 26-477); assay: cell-based or functional assay
Sequence (P47871 26-477): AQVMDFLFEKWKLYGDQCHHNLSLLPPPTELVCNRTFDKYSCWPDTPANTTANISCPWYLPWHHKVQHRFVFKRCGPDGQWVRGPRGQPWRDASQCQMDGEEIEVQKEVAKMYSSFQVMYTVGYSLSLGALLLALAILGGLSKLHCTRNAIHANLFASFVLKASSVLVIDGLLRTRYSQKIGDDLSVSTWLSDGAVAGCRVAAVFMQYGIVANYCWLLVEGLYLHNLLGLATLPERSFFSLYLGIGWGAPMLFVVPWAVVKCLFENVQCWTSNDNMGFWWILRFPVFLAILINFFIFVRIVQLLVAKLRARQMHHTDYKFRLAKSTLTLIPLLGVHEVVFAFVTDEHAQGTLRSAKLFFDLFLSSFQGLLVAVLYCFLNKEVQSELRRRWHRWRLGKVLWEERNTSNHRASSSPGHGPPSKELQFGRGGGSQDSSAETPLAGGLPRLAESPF

| Binder | EC50 hGlucagonR (cAMP formation) [nM] |
| --- | --- |
| B1 | 0.0166 |
| B2 | 0.121 |
| B3 | 1.32 |
| B4 | 0.0459 |
| B5 | 0.0146 |
| B6 | 0.038 |
| B7 | 2.13 |
| B8 | 0.0363 |
| B9 | 5.16 |
| B10 | 0.0287 |
| B11 | 1.87 |
| B12 | 0.614 |
